Legend:
Assay in all cases: peptide array on glass slide, fluorescent secondary antibody;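 also: binding of a hybridoma-secreted monoclonal antibody to immobilized oligopeptide spots, compared with control antibodies, detected through a fluorescence-labeled secondary antibody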
[1] = target: T1, IsaA oligopeptide SEQ ID NO: 64 (Staphylococcus aureus)
T1 construct: Synthetic 15-mer of IsaA, spotted on a glass slide
T1 peptide: AVKAYKAQGLGAWGF
Protocol: (§1) Each oligopeptide was immobilized on a small spot on a glass side. Binding of the monoclonal antibodies secreted by the hybridoma cell line DSM ACC2987 and of control antibodies to these spots was examined upon incubation with these antibodies by binding of fluorescence labeled secondary antibodies and detecting fluorescence intensities.

[2] = target: T2, IsaA oligopeptide SEQ ID NO: 53 (Staphylococcus aureus)
T2 construct: Synthetic 15-mer of IsaA, spotted on a glass slide
T2 peptide: AAIIARESNGQVNAY
Protocol: as §1

[3] = target: T3, IsaA oligopeptide SEQ ID NO: 58 (Staphylococcus aureus)
T3 construct: Synthetic 15-mer of IsaA, spotted on a glass slide
T3 peptide: SGLFQTMPGWGPTNT
Protocol: as §1

[4] = target: T4, IsaA oligopeptide SEQ ID NO: 51 (Staphylococcus aureus)
T4 construct: Synthetic 15-mer of IsaA, spotted on a glass slide
T4 peptide: TGVSASTWAAIIARE
Protocol: as §1

[5] = target: T5, IsaA oligopeptide SEQ ID NO: 23 (Staphylococcus aureus)
T5 construct: Synthetic 15-mer of IsaA, spotted on a glass slide
T5 peptide: DGAYDIHFVKDGFQY
Protocol: as §1

[6] = target: T6, IsaA oligopeptide SEQ ID NO: 19 (Staphylococcus aureus)
T6 construct: Synthetic 15-mer of IsaA, spotted on a glass slide
T6 peptide: DLAHNHQDQLNAAPI
Protocol: as §1

[7] = target: T7, IsaA oligopeptide SEQ ID NO: 34 (Staphylococcus aureus)
T7 construct: Synthetic 15-mer of IsaA, spotted on a glass slide
T7 peptide: DYTTSYNQGSDVQSV
Protocol: as §1

[8] = target: T8, IsaA oligopeptide SEQ ID NO: 37 (Staphylococcus aureus)
T8 construct: Synthetic 15-mer of IsaA, spotted on a glass slide
T8 peptide: QSVSYNAQSSNSNVE
Protocol: as §1

[9] = target: T9, IsaA oligopeptide SEQ ID NO: 54 (Staphylococcus aureus)
T9 construct: Synthetic 15-mer of IsaA, spotted on a glass slide
T9 peptide: ARESNGQVNAYNPSG
Protocol: as §1

[10] = target: T10, IsaA oligopeptide SEQ ID NO: 33 (Staphylococcus aureus)
T10 construct: Synthetic 15-mer of IsaA, spotted on a glass slide
T10 peptide: VAGADYTTSYNQGSD
Protocol: as §1

[11] = target: T11, IsaA oligopeptide SEQ ID NO: 59 (Staphylococcus aureus)
T11 construct: Synthetic 15-mer of IsaA, spotted on a glass slide
T11 peptide: QTMPGWGPTNTVDQQ
Protocol: as §1

[12] = target: T12, IsaA oligopeptide SEQ ID NO: 12 (Staphylococcus aureus)
T12 construct: Synthetic 15-mer of IsaA, spotted on a glass slide
T12 peptide: ALGVTGYAAGTGHQA
Protocol: as §1

[13] = target: T13, IsaA oligopeptide SEQ ID NO: 46 (Staphylococcus aureus)
T13 construct: Synthetic 15-mer of IsaA, spotted on a glass slide
T13 peptide: SNGNTAGATGSSAAQ
Protocol: as §1

[14] = target: T14, IsaA oligopeptide SEQ ID NO: 52 (Staphylococcus aureus)
T14 construct: Synthetic 15-mer of IsaA, spotted on a glass slide
T14 peptide: ASTWAAIIARESNGQ
Protocol: as §1

[15] = target: T15, IsaA oligopeptide SEQ ID NO: 49 (Staphylococcus aureus)
T15 construct: Synthetic 15-mer of IsaA, spotted on a glass slide
T15 peptide: AAQIMAQRTGVSAST
Protocol: as §1

[16] = target: T16, IsaA oligopeptide SEQ ID NO: 10 (Staphylococcus aureus)
T16 construct: Synthetic 15-mer of IsaA, spotted on a glass slide
T16 peptide: IMASSLAVALGVTGY
Protocol: as §1

[17] = target: T17, IsaA oligopeptide SEQ ID NO: 27 (Staphylococcus aureus)
T17 construct: Synthetic 15-mer of IsaA, spotted on a glass slide
T17 peptide: FTSNGTTWSWSYEAA
Protocol: as §1

[18] = target: T18, IsaA oligopeptide SEQ ID NO: 43 (Staphylococcus aureus)
T18 construct: Synthetic 15-mer of IsaA, spotted on a glass slide
T18 peptide: YSTSTTSSSVRLSNG
Protocol: as §1

[19] = target: T19, IsaA oligopeptide SEQ ID NO: 57 (Staphylococcus aureus)
T19 construct: Synthetic 15-mer of IsaA, spotted on a glass slide
T19 peptide: PSGASGLFQTMPGWG
Protocol: as §1

[20] = target: T20, IsaA oligopeptide SEQ ID NO: 32 (Staphylococcus aureus)
T20 construct: Synthetic 15-mer of IsaA, spotted on a glass slide
T20 peptide: GFSNVAGADYTTSYN
Protocol: as §1

[21] = target: T21, IsaA oligopeptide SEQ ID NO: 61 (Staphylococcus aureus)
T21 construct: Synthetic 15-mer of IsaA, spotted on a glass slide
T21 peptide: TNTVDQQINAAVKAY
Protocol: as §1

[22] = target: T22, IsaA oligopeptide SEQ ID NO: 50 (Staphylococcus aureus)
T22 construct: Synthetic 15-mer of IsaA, spotted on a glass slide
T22 peptide: MAQRTGVSASTWAAI
Protocol: as §1

[23] = target: T23, IsaA oligopeptide SEQ ID NO: 11 (Staphylococcus aureus)
T23 construct: Synthetic 15-mer of IsaA, spotted on a glass slide
T23 peptide: SLAVALGVTGYAAGT
Protocol: as §1

[24] = target: T24, IsaA oligopeptide SEQ ID NO: 21 (Staphylococcus aureus)
T24 construct: Synthetic 15-mer of IsaA, spotted on a glass slide
T24 peptide: QLNAAPIKDGAYDIH
Protocol: as §1

[25] = target: T25, IsaA oligopeptide SEQ ID NO: 44 (Staphylococcus aureus)
T25 construct: Synthetic 15-mer of IsaA, spotted on a glass slide
T25 peptide: TTSSSVRLSNGNTAG
Protocol: as §1

[26] = target: T26, IsaA oligopeptide SEQ ID NO: 63 (Staphylococcus aureus)
T26 construct: Synthetic 15-mer of IsaA, spotted on a glass slide
T26 peptide: NAAVKAYKAQGLGAW
Protocol: as §1

[27] = target: T27, IsaA oligopeptide SEQ ID NO: 9 (Staphylococcus aureus)
T27 construct: Synthetic 15-mer of IsaA, spotted on a glass slide
T27 peptide: MKKTIMASSLAVALG
Protocol: as §1

[28] = target: T28, IsaA oligopeptide SEQ ID NO: 24 (Staphylococcus aureus)
T28 construct: Synthetic 15-mer of IsaA, spotted on a glass slide
T28 peptide: DIHFVKDGFQYNFTS
Protocol: as §1

[29] = target: T29, IsaA oligopeptide SEQ ID NO: 25 (Staphylococcus aureus)
T29 construct: Synthetic 15-mer of IsaA, spotted on a glass slide
T29 peptide: VKDGFQYNFTSNGTT
Protocol: as §1

[30] = target: T30, IsaA oligopeptide SEQ ID NO: 56 (Staphylococcus aureus)
T30 construct: Synthetic 15-mer of IsaA, spotted on a glass slide
T30 peptide: NAYNPSGASGLFQTM
Protocol: as §1

[31] = target: T31, IsaA oligopeptide SEQ ID NO: 47 (Staphylococcus aureus)
T31 construct: Synthetic 15-mer of IsaA, spotted on a glass slide
T31 peptide: TAGATGSSAAQIMAQ
Protocol: as §1

[32] = target: T32, IsaA oligopeptide SEQ ID NO: 15 (Staphylococcus aureus)
T32 construct: Synthetic 15-mer of IsaA, spotted on a glass slide
T32 peptide: HQAHAAEVNVDQAHL
Protocol: as §1

[33] = target: T33, IsaA oligopeptide SEQ ID NO: 38 (Staphylococcus aureus)
T33 construct: Synthetic 15-mer of IsaA, spotted on a glass slide
T33 peptide: YNAQSSNSNVEAVSA
Protocol: as §1

B1: monoclonal antibody MAB-UK-66 secreted by hybridoma cell line DSM ACC2987 (antibody, V domains shown)
VH: DVKLVESGGGLVKLGGSLKLSCSASGFTFSNYYMSWVRQTPEKRLELVADINGNGGSTYYPDTVKGRFTISRDNAKNTLYLQMSSLKSEDTALYYCVRRGGYYALDYWGQGTTVTVSS
VL: DVVMTQTPLSLPVSLGDQASISCRSSQSLVHINGNTYLHWYLQKPGQSPKLLIYRVSNRFSGVPDRFSGSGSGTDFTLKISRVEAEDLGVYFCSQSTHVPWTFGGGTKLELKR
notes: Monoclonal mouse antibody from a hybridoma; Detected with anti-mouse IgG; also called antibodies secreted by cell line DSM ACC2987; anti-IsaA MAB
Question: For B1, which “Binding (fluorescence intensity)” value [1] is on record?
Answer: 379

Question: What about the “Binding (fluorescence intensity)” value [2] of the same binder?
Answer: 577

Question: What about the “Binding (fluorescence intensity)” value [3] of the same binder?
Answer: 1320

Question: And the “Binding (fluorescence intensity)” value [4]?
Answer: 139

Question: What about the “Binding (fluorescence intensity)” value [5] of the same binder?
Answer: 63900

Question: And the “Binding (fluorescence intensity)” value [6]?
Answer: 31900

Question: And the “Binding (fluorescence intensity)” value [7]?
Answer: 29500

Question: And the “Binding (fluorescence intensity)” value [8]?
Answer: 139

Question: And the “Binding (fluorescence intensity)” value [9]?
Answer: 570

Question: And the “Binding (fluorescence intensity)” value [10]?
Answer: 55500

Question: And the “Binding (fluorescence intensity)” value [11]?
Answer: 1400

Question: And the “Binding (fluorescence intensity)” value [12]?
Answer: 680

Question: And the “Binding (fluorescence intensity)” value [13]?
Answer: 587

Question: And the “Binding (fluorescence intensity)” value [14]?
Answer: 285

Question: And the “Binding (fluorescence intensity)” value [15]?
Answer: 399

Question: And the “Binding (fluorescence intensity)” value [16]?
Answer: 228

Question: What about the “Binding (fluorescence intensity)” value [17] of the same binder?
Answer: 442

Question: And the “Binding (fluorescence intensity)” value [18]?
Answer: 371

Question: And the “Binding (fluorescence intensity)” value [19]?
Answer: 16800

Question: What about the “Binding (fluorescence intensity)” value [20] of the same binder?
Answer: 59500

Question: And the “Binding (fluorescence intensity)” value [21]?
Answer: 479

Question: And the “Binding (fluorescence intensity)” value [22]?
Answer: 192

Question: And the “Binding (fluorescence intensity)” value [23]?
Answer: 101

Question: And the “Binding (fluorescence intensity)” value [24]?
Answer: 33300

Question: And the “Binding (fluorescence intensity)” value [25]?
Answer: 486

Question: What about the “Binding (fluorescence intensity)” value [26] of the same binder?
Answer: 645

Question: And the “Binding (fluorescence intensity)” value [27]?
Answer: 273

Question: What about the “Binding (fluorescence intensity)” value [28] of the same binder?
Answer: 9360

Question: And the “Binding (fluorescence intensity)” value [29]?
Answer: 49300

Question: And the “Binding (fluorescence intensity)” value [30]?
Answer: 959

Question: What about the “Binding (fluorescence intensity)” value [31] of the same binder?
Answer: 252

Question: What about the “Binding (fluorescence intensity)” value [32] of the same binder?
Answer: 11700

Question: What about the “Binding (fluorescence intensity)” value [33] of the same binder?
Answer: 975

Source: patent publication US20160109449A1 (JULIUS MAXIMILIANS UNIVERSITAET WUERZBURG, published 2016)
